Assay [1] has as its target recombinant gB-CMV polyepitope protein (Human cytomegalovirus (AD169)). Nature of the assay: direct ELISA; plate coated with concentrated recombinant protein diluted 1:25600; 2F12 at 1:8000; HRP anti-mouse Ig, TMB. (In an ELISA, binding on a coated surface is turned into a signal by an enzyme label.)
For assay [2] the target is unchanged. Nature of the assay: direct ELISA; plate coated with concentrated recombinant protein diluted 1:1600; 2F12 at 1:8000; HRP anti-mouse Ig, TMB.
For assay [3] the target is unchanged. Nature of the assay: direct ELISA; plate coated with concentrated recombinant protein diluted 1:800; 2F12 at 1:8000; HRP anti-mouse Ig, TMB.
Assay [4] has the same target. Nature of the assay: direct ELISA; plate coated with concentrated recombinant protein diluted 1:50; 2F12 at 1:8000; HRP anti-mouse Ig, TMB.
Assay [5] shares this target. Nature of the assay: direct ELISA; plate coated with concentrated recombinant protein diluted 1:102400; 2F12 at 1:8000; HRP anti-mouse Ig, TMB.
The target is the same in assay [6]. Nature of the assay: direct ELISA; plate coated with concentrated recombinant protein diluted 1:3200; 2F12 at 1:8000; HRP anti-mouse Ig, TMB.
For assay [7] the target is unchanged. Nature of the assay: direct ELISA; plate coated with concentrated recombinant protein diluted 1:12800; 2F12 at 1:8000; HRP anti-mouse Ig, TMB.
Assay [8] has the same target. Nature of the assay: direct ELISA; plate coated with concentrated recombinant protein diluted 1:400; 2F12 at 1:8000; HRP anti-mouse Ig, TMB.
Assay [9] has the same target. Nature of the assay: direct ELISA; plate coated with concentrated recombinant protein diluted 1:100; 2F12 at 1:8000; HRP anti-mouse Ig, TMB.
Assay [10] shares this target. Nature of the assay: direct ELISA; plate coated with concentrated recombinant protein diluted 1:51200; 2F12 at 1:8000; HRP anti-mouse Ig, TMB.
Assay [11] has the same target. Nature of the assay: direct ELISA; plate coated with concentrated recombinant protein diluted 1:6400; 2F12 at 1:8000; HRP anti-mouse Ig, TMB.
Assay [12] has the same target. Nature of the assay: direct ELISA; plate coated with concentrated recombinant protein diluted 1:200; 2F12 at 1:8000; HRP anti-mouse Ig, TMB.

Take “anti-gB monoclonal antibody 2F12 (Abcam, UK)”: the OD in assay [1] came to 0.277 OD; in assay [2] it was 0.379 OD; in [3] it was 0.486 OD; in assay [4], 0.69 OD; in [5] it was 0.144 OD; in [6], 0.4 OD. Also, the OD was 0.249 OD in [7]; 0.59 OD in assay [8]; 0.548 OD in assay [9]; 0.19 OD in assay [10]; 0.317 OD in [11]; 0.408 OD in [12].

(Values after US7976845.)
